Experimental data: patent US20160068860A1, “TRANSGENIC PLANTS” (CONSEJO SUPERIOR DE INVESTIGACIONES CIENTIFICAS (CSIC), priority 2013, published 2016)
Changes are numbered by the printed parent chain. Names may count otherwise.

B1: PYL4H82R V97A (AtPYL H82 and V97A) (receptor)
chain: MLAVHRPSSAVSDGDSVQIPMMIASFQKRFPSLSRDSTAARFHTHEVGPNQCCSAVIQEISAPISTVWSVVRRFDNPQAYKRFLKSCSVIGGDGDNAGSLRQVHVVSGLPAASSTERLDILDDERHVISFSVVGGDHRLSNYRSVTTLHPSPISGTVVVESYVVDVPPGNTKEETCDFVDVIVRCNLQSLAKIAENTAAESKKKMSL
notes: also called PYL4H82R (found combined with V97A)
B2: PYL4A194T: AtPYL4 ABA receptor mutant polypeptide with A194T substitution (SEQ ID NO. 60; nucleic acid SEQ ID NO: 55); also over-expressed in plants (protein, listed as Arabidopsis thaliana)
chain: B1 chain with R82H, A97V, A194T

Assays:
[1] = test system: 6His-ΔNPP2CA; assay: Binding assay with 6His-ΔNPP2CA (Ni-affinity co-purification, size exclusion, pull-down); set-up: species or system Arabidopsis; conditions: for pull-down interaction with PP2CA: absence or presence of 100 μM ABA
Protocol: For small scale protein purifications, E. coli BL21 (DE3) cells transformed with the corresponding constructs were grown in 100 ml of LB medium to an OD600 of 0.6-0.8. At this point 1 mM isopropyl-β-D-thiogalactoside (IPTG) was added and the cells were harvested after overnight incubation at 20° C. Pellets were resuspended in lysis buffer (50 mM Tris pH 7.5, 250 mM KCl, 10% Glycerol, 1 mM β-mercaptoethanol) and lysed by sonication with a Branson Sonifier 250. The clear lysate obained after centrifugation was purified by Ni-affinity. A washing step was performed using 50 mM Tris, 250 mM KCl, 20% Glycerol, 30 mM imidazole and 1 mM […] washing buffer, and finally the protein was eluted using 50 mM Tris, 250 mM KCl, 20% Glycerol, 250 mM imidazole and 1 mM […] elution buffer For protein-protein interaction experiments, the pET28a_ΔNPP2CA, pETM11_PYL4 wt and pETM11_PYL4A194T plasmids were transformed into E. coli BL21 (DE3). A total of 8 ml of an overnight culture were sub-cultured into 800 ml fresh 2TY broth (16 g Bacto tryptone, 10 g yeast extract, 5 g NaCl per litre of solution) plus kanamycin (50 μg ml-1). Protein expression was induced with 0.3 mM IPTG and the cells were harvested after overnight incubation at 20° C. Pellets were resuspended in 25 mM TrisHCl pH 8.0, 50 mM NaCl, 50 mM imidazole, 5 mM […] and disrupted by sonication. After centrifugation (40 min, 40000 g) at 277 K, the clear supernatant was filtered (pore diameter […]; Millipore Corporation, Bedford, Mass., USA). The 6His-tagged proteins were purified using Ni-NTA Agarose (Qiagen) according to the manufacturer's instructions. The filtered supernatant was mixed with the previously equilibrated beads. After incubation, a washing step with ten volumes of 25 mM TrisHCl pH 8.0, 50 mM NaCl, 20 mM imidazole, 5 mM […] buffer was performed followed by the elution from the Ni2+ resin in a buffer with 500 mM imidazole. Imidazole was removed using a PD-10 column (GE Healthcare) and the His-tag was cleaved using TEV protease.
6His-ΔNPP2CA pellets were resuspended in 25 mM TrisHCl pH 8.0, 150 mM NaCl, 50 mM imidazole, 5 mM 3-mercaptoethanol, 5 mM Mg2+, mixed with 8 mg of either pure non-tagged (through TEV cleavage) PYL4 or PYL4A194T and disrupted by sonication. The crude extracts were treated as described above using His-Trap HP columns from GE Healthcare to the capture step according to the manufacturer's instructions. In all cases, the purified proteins were subjected to a size exclusion chromatography using a Superdex200 10/300 (Amersham Biosciences Limited, UK) to analyze the behavior in a gel filtration of each protein and to isolate the complex. […] After three washes, proteins were eluted by adding 500 mM imidazol and analyzed by SDS-PAGE.

[2] = test system: Arabidopsis thaliana plants; assay: Root growth assay of OE lines on ABA; format: in vivo; conditions: 10 μM ABA, 10 d after transfer
Protocol: Seedlings were grown on vertically oriented MS plates for 4 to 5 days. Afterwards, 20 plants were transferred to new MS plates lacking or supplemented with the indicated concentrations of ABA. The plates were scanned on a flatbed scanner after 10-d to produce image files suitable for quantitative analysis of root growth using the NIH software ImageJ v1.37. As an indicator of shoot growth, the maximum rosette radius was measured.

[3] = test system: Barley plants (cv. Golden Promise); format: in vivo, Hordeum vulgare; conditions: for vegetative growth under non-stress conditions: in vivo; for drought tolerance compared to non-transformed Golden promise wt plants / fresh weight/leaf after drought / survival and vegetative growth after drought and rewatering / weight/plant after drought and rewatering: transgenic barley; for drought tolerance compared to non-transformed Golden promise wt plants: 12-d period of drought; for fresh weight/leaf after drought / survival and vegetative growth after drought and rewatering / weight/plant after drought and rewatering: compared to non-transformed plants
Description: Transgenic barley (cv. Golden Promise) expressing either Arabidopsis PYL4^A194T or PYL4^H82R V97A open reading frame driven by the Ubiquitin promoter from the pBract214 vector was generated via Agrobacterium-mediated transformation (Bartlett et al. 2008).
The nucleotide sequence encoding either PYL4^A194T or PYL4^H82R V97A open reading frame was recombined by LR reaction from pCR8/GW/TOPO entry vector into the Gateway compatible pBract214 destination vector. The sequence introduced in barley is the Arabidopsis open reading frame carrying the indicated mutations. Also, the second codon (of the sequence as shown in SEQ ID NO; 2) was modified to GTT to get a Ncol site to facilitate cloning).
Immature embryos were inoculated with Agrobacterium strain AGL1 containing the over-expression vector pBract214 into which the genes of interest had been cloned. pBract214 also contains the hygromycin resistance gene to allow selection of transgenic tissues and plants. Following co-cultivation for 3 days, immature embryos were transferred to selective callus induction medium containing hygromycin to allow the selection of transformed tissue and timentin to remove Agrobacterium. After a total of 6 weeks callus induction, callus were moved to a transition medium in low light and then 2 weeks later to regeneration medium under full light. Regenerated plants were transferred to rooting tubes when shoots reached 2-3 cm in length. Plants with strong roots in hygromycin containing medium were then established in soil and grown to maturity under controlled environment conditions in order to obtain T1 seed progeny.
Barley plants (cv. Golden Promise) were routinely grown under greenhouse conditions (40-50% relative humidity, 23-24° C.) in pots containing a 1:3 vermiculite-soil mixture. Pots were grouped in trays where water was maintained approximately 0.2-1 cm above the bottom of the tray. For drought (D) stress experiments, four-week-old plants were watered with tap water for 12-d (minus D, water maintained 0.2-1 cm above the bottom of the tray) or were submitted to drought for 12-d (plus D, water withdrawal). One flag leaf per plant (10 individual plants for each genetic background, minus and plus D treatment) was weighed in order to obtain its fresh weight and dried for 16 h at 70° C. and weighed again to obtain its dry weight. After the 12 day drought period, plants that had been submitted to drought were re-watered (RW, water 1 cm above the bottom of the tray for 2-d, then water withdrawal) and weight per plant (destructive measurement to obtain above ground biomass) was obtained after 5-d (plus D, plus RW). The results obtained are described in FIGS. 9, 10 and 11.

[4] = test system: Arabidopsis thaliana plants; assay: Dehydration treatment of seedlings in laminar flow hood; format: in vivo; conditions: OE plants; 15-d-old seedlings, 12 h of dehydration, scored 3-d afterwards
Protocol: 2-weeks-old seedlings grown in MS plates were used for these experiments. Twenty seedlings per genotype (two independent experiments) were submitted to the drying atmosphere of a flow laminar hood for 12 hours (25° C.±1° C., 25%±2% relative humidity), then rehydrated with 25 ml of water. Survival percentage was scored 3 days after rehydration by counting the percentage of plants that had at least four green leaves.

| Molecule | pull-down interaction with PP2CA [1] | ABA-mediated inhibition of root growth [2] | vegetative growth under non-stress conditions [3] | drought tolerance compared to non-transformed Golden promise wt plants [3] | fresh weight/leaf after drought [3] | survival and vegetative growth after drought and rewatering [3] | weight/plant after drought and rewatering [3] | survival after dehydration followed by rehydration [4] | co-purification with 6His-ΔNPP2CA by Ni-affinity chromatography ([1]; absence of ABA) | complex with 6His-ΔNPP2CA by size exclusion chromatography ([1]; absence of ABA) |
| --- | --- | --- | --- | --- | --- | --- | --- | --- | --- | --- |
| PYL4: AtPYL4 wild type ABA receptor polypeptide (SEQ ID NO:3, At2g38310) [reference compound] | dependent on the addition of ABA | enhanced ABA-mediated inhibition of root growth compared to non-transformed plants |  |  |  |  |  |  |  |  |
| B1 |  |  | did not impair vegetative growth | enhanced drought tolerance | higher fresh weight/leaf | enhanced survival and vegetative growth | higher weight/plant | ~25% |  |  |
| B2 | ABA-independent binding | enhanced ABA-mediated inhibition of root growth compared to non-transformed plants | did not impair vegetative growth | enhanced drought tolerance | higher fresh weight/leaf | enhanced survival and vegetative growth | higher weight/plant | approximately 40% | could be co-purified | 1:1 complex |
